Measurements reported in the supplement of paper PMC10065799, “High-throughput profiling of sequence recognition by tyrosine kinases and SH2 domains using bacterial peptide display” (eLife, 2023).

What was measured:
[1] = molecular target: Jak2 (UniProt O60674); assay: phosphorylation enrichment, bacterial display (enrichment ratio); higher = better substrate or ligand; peptides without Tyr show the background
[2] = molecular target: Fes (UniProt P07332); assay: as above
[3] = test system: Fer (mouse); assay: as above
[4] = molecular target: MERTK (UniProt Q12866); assay: as above
[5] = test system: AncSZ; assay: as above
[6] = molecular target: EPHB2 (UniProt P29323); assay: as above
[7] = test system: c-Abl (mouse); assay: as above
[8] = molecular target: EPHB1 (UniProt P54762); assay: as above
[9] = molecular target: FGFR1 (UniProt P11362); assay: as above
[10] = molecular target: Fyn (UniProt P06241); assay: as above
[11] = test system: c-Src; assay: as above
[12] = molecular target: FGFR3 (UniProt P22607); assay: as above
[13] = molecular target: Hck (UniProt P08631); assay: as above
[14] = molecular target: SHP2-C SH2; assay: SH2 binding enrichment of the phosphorylated peptide, bacterial display (enrichment ratio); higher = better substrate or ligand; peptides without Tyr show the background
[15] = molecular target: c-Src SH2; assay: as above
[16] = molecular target: Grb2 SH2 (UniProt P62993); assay: as above
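Throughout, for SH2 binding enrichment of the phosphorylated peptide, bacterial display: peptide library displayed on the E. coli surface as eCPX fusions, selected cells deep-sequenced, score is each peptide's frequency after selection divided by its frequency in the input.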
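Throughout, for phosphorylation enrichment, bacterial display: 11-residue human phosphosite peptides and single-mutation variants displayed on the E. coli surface, counted by deep sequencing, each peptide's frequency after selection divided by its frequency in the unselected input library; frequency after pTyr selection over input frequency; kinase dosed for 20-30% of maximal phosphorylation in three min.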

Chain of Hck (P08631 whole entry, looked up): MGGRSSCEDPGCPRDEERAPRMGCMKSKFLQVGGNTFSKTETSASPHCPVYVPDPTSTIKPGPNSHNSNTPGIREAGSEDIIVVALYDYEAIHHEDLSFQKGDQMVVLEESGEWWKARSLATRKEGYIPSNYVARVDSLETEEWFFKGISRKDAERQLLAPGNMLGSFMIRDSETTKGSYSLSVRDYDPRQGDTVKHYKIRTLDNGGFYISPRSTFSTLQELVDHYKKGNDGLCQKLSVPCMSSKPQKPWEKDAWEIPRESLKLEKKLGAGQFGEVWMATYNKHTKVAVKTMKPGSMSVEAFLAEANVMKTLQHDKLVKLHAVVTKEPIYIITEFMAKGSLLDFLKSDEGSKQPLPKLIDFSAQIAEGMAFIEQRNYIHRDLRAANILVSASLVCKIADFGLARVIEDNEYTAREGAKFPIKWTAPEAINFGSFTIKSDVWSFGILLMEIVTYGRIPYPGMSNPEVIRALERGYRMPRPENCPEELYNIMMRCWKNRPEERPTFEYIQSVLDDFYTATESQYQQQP
Chain of FGFR1 (P11362 whole entry, looked up): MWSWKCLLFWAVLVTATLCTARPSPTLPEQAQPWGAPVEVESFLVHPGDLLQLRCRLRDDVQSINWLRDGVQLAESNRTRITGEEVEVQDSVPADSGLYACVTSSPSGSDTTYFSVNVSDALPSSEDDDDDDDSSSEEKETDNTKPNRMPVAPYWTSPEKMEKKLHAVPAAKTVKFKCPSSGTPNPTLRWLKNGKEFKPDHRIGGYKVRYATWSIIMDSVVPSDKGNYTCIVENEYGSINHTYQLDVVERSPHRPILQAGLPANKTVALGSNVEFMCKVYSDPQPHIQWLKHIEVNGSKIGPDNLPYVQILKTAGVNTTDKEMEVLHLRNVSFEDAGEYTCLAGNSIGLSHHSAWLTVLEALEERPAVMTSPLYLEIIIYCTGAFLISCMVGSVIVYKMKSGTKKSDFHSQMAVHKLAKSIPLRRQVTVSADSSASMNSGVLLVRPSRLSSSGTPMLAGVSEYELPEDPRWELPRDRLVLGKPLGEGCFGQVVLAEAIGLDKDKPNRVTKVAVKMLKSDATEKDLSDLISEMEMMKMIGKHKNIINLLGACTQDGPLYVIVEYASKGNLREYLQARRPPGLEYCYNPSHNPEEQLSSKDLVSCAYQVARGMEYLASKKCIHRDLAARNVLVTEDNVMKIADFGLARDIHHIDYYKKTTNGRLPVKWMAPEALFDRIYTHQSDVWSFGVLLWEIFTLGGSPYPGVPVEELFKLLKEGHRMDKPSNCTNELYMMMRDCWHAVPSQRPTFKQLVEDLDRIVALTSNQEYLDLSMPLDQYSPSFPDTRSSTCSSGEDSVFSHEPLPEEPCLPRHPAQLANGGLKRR
Chain of Fyn (P06241 whole entry, looked up): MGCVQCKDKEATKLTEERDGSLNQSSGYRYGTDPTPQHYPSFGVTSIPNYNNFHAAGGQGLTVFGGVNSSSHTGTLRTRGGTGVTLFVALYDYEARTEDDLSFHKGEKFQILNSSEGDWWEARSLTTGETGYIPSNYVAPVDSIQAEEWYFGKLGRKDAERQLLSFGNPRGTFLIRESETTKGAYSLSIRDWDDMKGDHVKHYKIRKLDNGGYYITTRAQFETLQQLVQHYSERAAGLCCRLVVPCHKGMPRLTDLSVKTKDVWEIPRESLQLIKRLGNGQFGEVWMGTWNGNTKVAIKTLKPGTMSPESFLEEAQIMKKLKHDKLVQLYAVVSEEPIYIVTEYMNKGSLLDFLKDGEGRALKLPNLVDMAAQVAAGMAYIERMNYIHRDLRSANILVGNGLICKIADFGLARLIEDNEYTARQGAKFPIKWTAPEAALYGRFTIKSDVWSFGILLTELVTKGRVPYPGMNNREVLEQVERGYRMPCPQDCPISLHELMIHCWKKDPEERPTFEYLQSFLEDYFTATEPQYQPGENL
Chain of FGFR3 (P22607 whole entry, looked up): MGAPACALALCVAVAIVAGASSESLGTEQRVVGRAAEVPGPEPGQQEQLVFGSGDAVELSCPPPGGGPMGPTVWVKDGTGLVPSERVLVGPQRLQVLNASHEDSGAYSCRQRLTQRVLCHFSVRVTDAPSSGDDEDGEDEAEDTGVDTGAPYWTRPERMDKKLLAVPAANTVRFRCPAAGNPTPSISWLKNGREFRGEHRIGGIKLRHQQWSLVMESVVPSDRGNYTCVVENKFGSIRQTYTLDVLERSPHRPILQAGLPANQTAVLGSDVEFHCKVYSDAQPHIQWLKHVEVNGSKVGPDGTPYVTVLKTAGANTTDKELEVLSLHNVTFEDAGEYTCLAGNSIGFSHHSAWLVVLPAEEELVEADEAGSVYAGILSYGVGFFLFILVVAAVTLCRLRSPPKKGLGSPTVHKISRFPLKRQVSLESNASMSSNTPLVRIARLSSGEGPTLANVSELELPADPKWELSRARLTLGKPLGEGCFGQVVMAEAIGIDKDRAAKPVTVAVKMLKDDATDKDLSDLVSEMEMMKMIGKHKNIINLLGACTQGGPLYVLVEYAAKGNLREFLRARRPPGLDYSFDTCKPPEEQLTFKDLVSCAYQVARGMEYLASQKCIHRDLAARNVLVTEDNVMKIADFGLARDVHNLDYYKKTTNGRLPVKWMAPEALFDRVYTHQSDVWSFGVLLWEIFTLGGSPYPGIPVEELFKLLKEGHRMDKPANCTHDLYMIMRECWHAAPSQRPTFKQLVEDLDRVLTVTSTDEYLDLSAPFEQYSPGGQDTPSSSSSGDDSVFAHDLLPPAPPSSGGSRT
Chain of EPHB2 (P29323 whole entry, looked up): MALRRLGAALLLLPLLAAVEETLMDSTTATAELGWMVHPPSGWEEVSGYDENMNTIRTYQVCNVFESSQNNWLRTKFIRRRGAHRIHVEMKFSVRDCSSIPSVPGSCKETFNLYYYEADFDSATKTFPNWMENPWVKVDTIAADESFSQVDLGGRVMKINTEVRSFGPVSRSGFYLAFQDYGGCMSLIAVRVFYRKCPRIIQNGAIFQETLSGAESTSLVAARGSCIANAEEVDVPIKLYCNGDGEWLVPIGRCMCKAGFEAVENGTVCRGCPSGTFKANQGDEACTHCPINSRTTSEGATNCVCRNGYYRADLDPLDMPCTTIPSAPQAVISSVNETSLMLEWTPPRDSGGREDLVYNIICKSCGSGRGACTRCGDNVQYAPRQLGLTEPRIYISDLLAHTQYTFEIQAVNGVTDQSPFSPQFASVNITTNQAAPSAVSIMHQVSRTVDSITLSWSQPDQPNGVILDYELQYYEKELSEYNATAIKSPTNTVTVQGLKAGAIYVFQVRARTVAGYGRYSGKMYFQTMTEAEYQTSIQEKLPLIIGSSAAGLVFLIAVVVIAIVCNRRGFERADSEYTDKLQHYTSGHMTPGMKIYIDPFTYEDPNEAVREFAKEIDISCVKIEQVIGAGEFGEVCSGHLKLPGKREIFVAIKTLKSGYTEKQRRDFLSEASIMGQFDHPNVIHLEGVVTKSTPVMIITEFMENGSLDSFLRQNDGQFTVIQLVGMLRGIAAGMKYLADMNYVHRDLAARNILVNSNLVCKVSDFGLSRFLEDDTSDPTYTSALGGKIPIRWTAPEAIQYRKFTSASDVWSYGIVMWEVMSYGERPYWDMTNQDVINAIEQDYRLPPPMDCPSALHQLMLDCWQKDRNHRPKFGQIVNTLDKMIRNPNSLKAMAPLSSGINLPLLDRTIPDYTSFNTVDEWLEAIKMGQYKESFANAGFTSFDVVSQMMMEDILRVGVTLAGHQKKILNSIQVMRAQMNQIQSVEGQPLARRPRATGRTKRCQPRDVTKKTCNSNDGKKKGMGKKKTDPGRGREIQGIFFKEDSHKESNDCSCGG
Chain of EPHB1 (P54762 whole entry, looked up): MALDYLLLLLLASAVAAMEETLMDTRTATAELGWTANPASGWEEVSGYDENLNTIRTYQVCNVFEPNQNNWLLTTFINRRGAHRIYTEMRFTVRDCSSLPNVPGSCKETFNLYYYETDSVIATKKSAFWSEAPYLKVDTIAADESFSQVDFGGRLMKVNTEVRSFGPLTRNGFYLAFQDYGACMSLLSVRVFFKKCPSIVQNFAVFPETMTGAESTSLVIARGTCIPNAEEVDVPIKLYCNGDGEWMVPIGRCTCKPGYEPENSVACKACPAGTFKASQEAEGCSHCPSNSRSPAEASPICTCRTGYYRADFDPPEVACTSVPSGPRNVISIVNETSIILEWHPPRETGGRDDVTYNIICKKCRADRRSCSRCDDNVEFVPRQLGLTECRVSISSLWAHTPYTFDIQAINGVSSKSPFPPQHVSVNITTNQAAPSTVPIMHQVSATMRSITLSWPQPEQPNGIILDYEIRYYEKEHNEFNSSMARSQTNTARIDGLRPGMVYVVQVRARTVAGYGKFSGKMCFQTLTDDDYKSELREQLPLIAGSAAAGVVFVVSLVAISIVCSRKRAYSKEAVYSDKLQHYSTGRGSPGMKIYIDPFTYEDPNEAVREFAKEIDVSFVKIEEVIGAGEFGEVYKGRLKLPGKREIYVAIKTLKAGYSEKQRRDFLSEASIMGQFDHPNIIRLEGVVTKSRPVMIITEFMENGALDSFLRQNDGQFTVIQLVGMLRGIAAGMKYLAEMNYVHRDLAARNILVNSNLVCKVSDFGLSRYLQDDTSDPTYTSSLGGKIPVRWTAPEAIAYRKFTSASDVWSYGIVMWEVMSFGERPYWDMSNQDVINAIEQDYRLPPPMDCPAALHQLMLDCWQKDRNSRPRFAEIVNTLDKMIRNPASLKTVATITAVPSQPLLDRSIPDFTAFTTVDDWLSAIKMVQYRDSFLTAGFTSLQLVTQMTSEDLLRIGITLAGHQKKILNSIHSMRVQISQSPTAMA

Sequence	SH2 binding enrichment [14]	SH2 binding enrichment [15]	SH2 binding enrichment [16]	phosphorylation enrichment [1]	phosphorylation enrichment [2]	phosphorylation enrichment [3]	phosphorylation enrichment [4]	phosphorylation enrichment [5]	phosphorylation enrichment [6]	phosphorylation enrichment [7]	phosphorylation enrichment [8]	phosphorylation enrichment [9]	phosphorylation enrichment [10]	phosphorylation enrichment [11]	phosphorylation enrichment [12]	phosphorylation enrichment [13]
IGEGTYGVLYK [CDK2_Y15_V18L]	0.514	0.381	0.635	0.635	1.04	0.808	2.63	0.817	2.75	0.587	1.55	0.416	8.4	5.6	0.632	7.04
PLFKICVAELI [MRPL28_Y230_Y230C]	0.829	0.496	0.926	1.31	1.57	0.707	0.469	1.2	0.888	0.718	1.06	0.499	0.73	0.394	1.14	0.692
SPRDTYSDRIG [CTPS1_Y567_S571I]	0.617	0.438	0.844	0.374	0.605	0.358	0.416	0.445	0.5	0.411	0.516	0.379	0.453	0.406	0.494	0.471
ADARMYGVHPW [PLP1_Y207_L210H]	0.477	0.465	0.653	0.521	0.726	0.355	0.391	0.604	0.493	0.53	0.458	0.38	4.81	3.64	0.481	2.42

Continued, in another order:

SH2 binding enrichment [14]	SH2 binding enrichment [15]	SH2 binding enrichment [16]	Sequence	phosphorylation enrichment [1]	phosphorylation enrichment [2]	phosphorylation enrichment [3]	phosphorylation enrichment [4]	phosphorylation enrichment [5]	phosphorylation enrichment [6]	phosphorylation enrichment [7]	phosphorylation enrichment [8]	phosphorylation enrichment [9]	phosphorylation enrichment [10]	phosphorylation enrichment [11]	phosphorylation enrichment [12]	phosphorylation enrichment [13]
0.633	0.453	0.799	INASGYRIGPA [ACSM1_Y477]	0.401	0.502	0.467	0.33	0.479	0.374	0.36	0.371	0.349	0.328	0.433	0.367	0.385
0.801	0.736	0.574	TENAGYYFRIS	1.71	1.75	0.453	0.433	1.44	0.576	0.763	0.588	0.575	0.477	0.41	0.816	0.475
1.62	0.849	1.02	FTAVGYHKHIT [NOMO1_Y1137]	0.524	0.685	0.48	0.33	0.649	0.414	0.569	0.382	0.485	0.432	0.312	0.614	0.482
0.793	0.578	0.866	CDIARYIVSQL [MAST2_Y461_P459A]	0.827	1.12	0.505	0.43	0.919	0.542	0.667	0.594	0.553	0.447	0.478	0.733	0.559
